Positions count from the first letter of the chain named. Numbers in names are those of the source.
Key:
[1] = biological target: T1, CocE WT (Rhodococcus sp., UniProt Q9L9D7); experiment: Inhibition of CocE WT aggregate formation, non-denaturing gel, 1 hour at 37° C.; set-up: species or system Rhodococcus sp. MB 1
T1 construct: 6xHis (C); made in house; host or cells: E. coli BL-21 Gold (DE3), pET-22b(+)
T1 sequence (Q9L9D7 1-574): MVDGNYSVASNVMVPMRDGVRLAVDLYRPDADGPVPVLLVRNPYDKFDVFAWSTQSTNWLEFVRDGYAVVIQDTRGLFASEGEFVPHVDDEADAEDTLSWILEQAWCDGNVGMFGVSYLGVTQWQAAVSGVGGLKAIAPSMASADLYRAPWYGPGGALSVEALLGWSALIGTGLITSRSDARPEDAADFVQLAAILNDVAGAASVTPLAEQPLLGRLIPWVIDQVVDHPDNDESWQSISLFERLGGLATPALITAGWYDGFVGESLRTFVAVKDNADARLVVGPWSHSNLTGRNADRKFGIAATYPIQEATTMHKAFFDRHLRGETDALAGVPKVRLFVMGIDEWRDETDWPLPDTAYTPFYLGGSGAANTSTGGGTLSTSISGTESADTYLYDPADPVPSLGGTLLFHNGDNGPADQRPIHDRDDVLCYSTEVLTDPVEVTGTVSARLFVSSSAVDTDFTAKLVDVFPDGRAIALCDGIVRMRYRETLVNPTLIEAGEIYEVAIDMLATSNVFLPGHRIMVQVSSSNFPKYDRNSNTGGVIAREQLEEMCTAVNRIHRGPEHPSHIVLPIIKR
Source text: To further study CocE stabilization with small molecules, other inhibitors of the CocE cleavage reaction were considered.

[2] = biological target: T2, CocE (Rhodococcus sp., UniProt Q9L9D7); format: biochemical, Rhodococcus sp. MB 1; conditions: for stabilization of CocE at 37° C., lower concentrations: cocaine lower than 62.5 μM, others below 125 μM
T2 construct: 6xHis (C); made in house; host or cells: E. coli BL-21 Gold (DE3), pET-22b(+)
T2 sequence (Q9L9D7 1-574): T1 sequence (Q9L9D7 1-574)
Experimental: (§1) Further spectrophotometric analysis of cocaine stabilization was performed, by analyzing the ability of CocE to cleave 4-nitrophenyl acetate, after preincubation at 37° C. for various times, in the presence of various concentrations of cocaine.

[3] = biological target: T2, CocE; format: biochemical, Rhodococcus sp. MB 1; conditions: cocaine: 62.5 and 125 μM; benzoic acid: higher concentrations
Experimental: CocE is also able to cleave another substrate, 4-nitrophenyl acetate (FIG. 3). Cleavage is monitored by detection of the appearance of the 4-nitrophenol reaction product, which absorbs at 400 nm.
as §1, with “cocaine. […] However, preincubation of CocE at the higher concentrations for various times at 37° C. indicated the enzyme was stabilized enough to be able to cleave the 4-nitrophenyl substrate (FIG. 5).” for “cocaine.”

[4] = tested on: cocaine-induced lethality; experiment: In vivo duration of protection against cocaine-induced lethality; set-up: species or system NIH-Swiss mice
Experimental: In vivo protection against cocaine lethality. Male NIH-Swiss mice (25-32 g) were obtained from Harlan Inc. (Indianapolis, Ind.) and were housed in groups of 6 mice per cage. All mice were allowed ad libitum access to food and water, and were maintained on a 12-h light-dark cycle with lights on at 06.30 AM in a room kept at a temperature of 21-22° C. Experiments were performed in accordance with the Guide for the Care and Use of Laboratory Animals as adopted and promulgated by the National Institutes of Health. The experimental protocols were approved by the University Committee on the Use and Care of Animals at the University of Michigan.
Cocaine-induced toxicity was characterized by the occurrence of lethality, as defined by the cessation of observed movement and respiration. Mice were placed individually in Plexiglas observation chambers (16×28×20 cm high) to be habituated for 15 min before drug administration. Following intra-peritoneal (i.p.) cocaine administration, the mouse was immediately placed individually in the same chamber for observation. The presence or absence of lethality was recorded for 60 min following cocaine administration. The mouse was placed in a small restraint chamber (Outer tube diameter: 30 mm; Inner tube diameter: 24 mm) that left the tail exposed. The tail was cleansed with an alcohol wipe and a 30G1/2 precision glide needle (Fisher Scientific, Pittsburgh, Pa.) was inserted into one of the side veins for infusion. The i.v. injection volume of CocE or CocE mutant was 0.2 mL per mouse. Sterile gauze and pressure were applied to the injection site to staunch the bleeding.
Lethality was monitored following injection at 1, 5, 10, or 30 min, or 1, 2, 3, 4, 5 hours after enzyme administration. Each treatment used 8 mice to assess the percent of lethality (i.e., protection) in mice pretreated with a single dose of an esterase at a single time point.
These values were used to compare the degree of rightward shifts of cocaine's dose-response curve in the absence or presence of the enzyme pretreatment. In the time course study, a time point for duration of protection (i.e., 50% of lethality) was estimated by using each time course curve crossing 50% occurrence of lethality.
Evaluation of in vivo half life. CocE is administered IV to the tail vein in a volume of 0.2 ml. Animals are challenged with 180 mg/kg cocaine delivered intraperitoneally at a given time after CocE administration.

[5] = tested on: cocaine-induced lethality; experiment: In vivo potency of protection against cocaine-induced lethality; set-up: species or system NIH-Swiss mice
[6] = Experimental: Analysis of CocE action on cocaine cleavage is performed by utilizing the spectroscopic properties of cocaine, which maximally absorbs light at a 240 nm wavelength. CocE activity is measured by monitoring for a decrease in signal at A240, using various concentrations of cocaine, and determining the initial rate of the decrease. From these values the Vmax of the enzyme can be determined. By pre-incubating the enzyme at 37° C. for various times before monitoring for activity, the half life of CocE at 37° C. can be calculated.
The initial rates (of decay) were determined by following the change in the intrinsic absorbance of cocaine at 240 nm (6700 M^1 cm^1)(Xie et al., 1999) using a SpectraMax Plus 384 UV plate reader (Molecular Devices, Sunnyvale, Calif.) using SOFTmax Pro software (Version 3.1.2). The reaction was initiated by adding 100 μL of a 2× enzyme solution (100 mM phosphate buffer, pH 7.4 and 300 mM NaCl) to 100 μL of a 2× cocaine solution (50 μg/mL enzyme, 100 mM Phosphate Buffer, pH 7.4 and 300 mM NaCl). All assays were performed with 100 μM DTT unless indicated otherwise. […] For stability measurements, wild type and mutant enzymes were diluted to 2× concentration and incubated at 37° C. for the times indicated. At the end of each time point, an aliquot was removed and kinetic behavior was observed as outlined above.
(§2) In vitro kinetic assays. […] Initial rates were then used to determine Michaelis-Menten parameters. To assess thermal stability, enzyme preparations were preincubated at 37° C. for various lengths of time, prior to measurement of residual activities (Table 1 and FIG. 23).

[7] = Michaelis-Menten kinetics of cocaine hydrolysis (absorbance at 240 nm); format: biochemical
Experimental: The initial rates (of decay) were determined by following the change in the intrinsic absorbance of cocaine at 240 nm (6700 M^1 cm^1)(Xie et al., 1999) using a SpectraMax Plus 384 UV plate reader (Molecular Devices, Sunnyvale, Calif.) using SOFTmax Pro software (Version 3.1.2). The reaction was initiated by adding 100 μL of a 2× enzyme solution (100 mM phosphate buffer, pH 7.4 and 300 mM NaCl) to 100 μL of a 2× cocaine solution (50 μg/mL enzyme, 100 mM Phosphate Buffer, pH 7.4 and 300 mM NaCl). All assays were performed with 100 μM DTT unless indicated otherwise. Final cocaine concentrations were as follows: 125, 62.5, 31.25, 15.63, 7.81, 3.91, 1.95, and 0.977 μM. Vmax and Km values were calculated using Prism (GraphPad Software, San Diego). For stability measurements, wild type and mutant enzymes were diluted to 2× concentration and incubated at 37° C. for the times indicated. At the end of each time point, an aliquot was removed and kinetic behavior was observed as outlined above.
as §2
Determination of Catalytic Efficiency. To determine the catalytic activity a spectrophometric assay was performed. Samples of L169K/G173Q CocE were added to a 96-well UV permeable plate containing increasing cocaine concentrations (0.5, 2.5, 5, 12.5, 25, 50, 100, and 150 μM) to give a final concentration of 10 ng/ml CocE in a final volume of 200 μl. The change in absorbance at 240 nm was measured over 20 minutes, with readings every 10 seconds, by a SpectraMax Plus 384 UV plate reader (Molecular Devices, Sunnyvale, Calif.) using SOFTmax Pro software (Version 3.1.2). The change in absorbance was converted to the change in concentration and furthermore the rate of decay per mole enzyme is determined (Kcat). Kcat and Km of the enzyme are determined using Prism (GraphPad software, San Diego).

[8] = 1 mg i.v., cocaine 180 mg/kg i.p.

Question: Which results are given for `O=C(O)c1ccccc1` [benzoic acid]?
Answer: inhibition of formation of CocE protein aggregates [1]: inhibited the formation of aggregates; stabilization of CocE at 37° C., higher concentrations ([2]; cocaine 62.5 and 125 μM, benzoic acid above 125 μM): stabilize; stabilization of CocE at 37° C., lower concentrations [2]: did not reveal any stabilization; inhibition of 4-nitrophenyl acetate cleavage [3]: inhibit

Question: Which “inhibition of formation of CocE protein aggregates” value [1] does the source give for `COC(=O)[C@@H]1[C@H]2CC[C@@H](C[C@@H]1O)N2C` [ecgonine methyl ester] here?
Answer: The value was “could not”.

Question: And the “stabilization of CocE at 37° C., lower concentrations” value [2]?
Answer: The value was “did not reveal any stabilization”.

Question: Which “inhibition of formation of CocE protein aggregates” value [1] does the source give for `CC(=O)[O-].[Na+]` [sodium acetate] here?
Answer: Its value is “could not”.

Question: And the “stabilization of CocE at 37° C., lower concentrations” value [2]?
Answer: The value was “did not reveal any stabilization”.

B1: T172R/G173Q: CocE double mutant (protein, listed as Rhodococcus sp.)
chain: T1 sequence (Q9L9D7 1-574) with T172R, G173Q
Question: What does the source list for B1?
Answer: LT50, pretreatment time to 50% lethality [4, 8]: up to 4.5 hr; LT50, pretreatment time to 50% lethality ([4]; 1 mg i.v., cocaine 180 mg/kg i.p., listed as T172R-G173Q): ~4.5 h; extension of pretreatment duration with 50% protection ([4]; mouse, in vivo): greater than 20 fold; protection against cocaine-induced lethality ([5]; i.v. pretreatment 1 min prior to i.p. cocaine): protected; Stability @ 37 (t1/2) [6]: ~5.43 h; half-life / τinact of activity at 37° C. [6]: 5.43 h; t1/2 [6]: 5.43 h; plateau of catalytic activity, percent of maximal ([6]; 37° C., after greater than 8 hr / t=10 hours): approximately 35%; extension of in vitro τinact at 37° C. ([6]; from 10 min): approximately 27 fold; Kcat(mol · s^−1 · mol^−1) ([7]; cocaine): 2247 mol · s^−1 · mol^−1

B2: G173Q: CocE mutant (protein, listed as Rhodococcus sp.)
chain: T1 sequence (Q9L9D7 1-574) with G173Q
Question: For B2, which “Stability @ 37 (t1/2)” value [6] is on record?
Answer: Its value is ~0.417 h.

B3: L169K/G173Q: CocE double mutant, SEQ ID NO:1 with substitutions L169K and G173Q (protein, listed as Rhodococcus sp.)
chain: T1 sequence (Q9L9D7 1-574) with L169K, G173Q
Question: Which “time for which 50% of mice were protected from death” value [4, 8] does the source give for B3 here?
Answer: Its value is “up to 7.5 hrs”.

Question: And the “lowest dose maintaining some degree of protection” value ([5]; i.v., cocaine i.p. 1 min later)?
Answer: Its value is 0.01 mg.

Question: What about the “protection from increasing lethal doses of cocaine” value ([5]; i.v., cocaine i.p. 1 min later) of the same molecule?
Answer: The value was “dose-dependently protected”.

Question: What about the “turnover per molecule of enzyme” value [7] of the same molecule?
Answer: The value was “approximately 6000 molecules of cocaine per minute”.

B4: L169K/G173Q/T172R: CocE triple mutant (protein)
chain: T1 sequence (Q9L9D7 1-574) with L169K, T172R, G173Q
Question: For B4, which “enhanced stabilization at 37° C.” value ([6]; data not shown) is on record?
Answer: Its value is “did not display an enhanced stabilization”.
